Results on four molecules are retold here after US20250282879A1 (CILAG GMBH INTERNATIONAL, published 2025).

Assay [1] concerns the target T1, human IL-4R on cells (HEK-Blue IL-4/IL-13 cells, human PBMC, human whole blood) (human, UniProt P24394 26-825). Description: cell-based or functional assay.
The next assay addresses T2, marmoset IL-4R ECD (marmoset (Callithrix jacchus), UniProt Q0PIT7 26-232).
T2 construct: immobilized directly on the sensor chip; also called marmoset monkey IL-4R
Description: SPR, direct setup, marmoset IL-4R ECD immobilized.

Assay [2] deals with T3, Human IL-4R-Fc (human, UniProt P24394 26-232).
T3 construct: also called human IL-4R (scFv SPR, capture setup); not shown: Fc part
In words: SPR, hIL-4R-Fc captured, scFv analyte.

Assay [3] addresses T1, human IL-4R on cells (HEK-Blue …). Description: cell-based or functional assay. This is another data set of the same source.
Assay [4] addresses T4, recombinant human IL-31 protein (Peprotech) (human, UniProt Q6EBC2 24-164).
T4 sequence (looked up): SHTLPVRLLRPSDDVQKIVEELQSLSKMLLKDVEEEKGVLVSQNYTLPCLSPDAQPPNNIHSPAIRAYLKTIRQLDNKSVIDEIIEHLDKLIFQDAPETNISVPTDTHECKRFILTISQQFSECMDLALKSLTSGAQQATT
In words: cell-based or functional assay.

For assay [5], the target named is T1, human IL-4R on cells (HEK-Blue …). Description: cell-based or functional assay. This is another data set of the same source.
For assay [6], the target named is recombinant cynomolgus monkey IL-31 (ECD with His Tag, Sino Biological) (cynomolgus monkey). In words: cell-based or functional assay.
Assay [7] deals with T5, recombinant cynomolgus monkey IL-4R (ECD with His-tag, Acro Biosystems) (cynomolgus monkey, UniProt A0A2K5V556 26-232).
T5 construct: bought; also called cynomolgus IL-4R
In words: SPR, Morrison captured via anti-human IgG-Fc, IL-4R ECD-His analyte. As for the experimental part: (§1) Binding kinetics (including affinity) of the bispecific Morrison-H (PRO2198, PRO2199) and Morrison-L (PRO2206, PRO2207) molecules to recombinant human IL-4R protein (ECD with His Tag, Sino Biological) were determined by SPR analysis on a T200 device (Biacore, Cytiva). In this SPR experiment, Morrison molecules were captured via an anti-human IgG-Fc antibody (Human Antibody Capture Kit; Biacore, Cytiva) covalently immobilized to a carboxylmethylated dextran surface (CM5 sensorchip; Biacore, Cytiva) and a titration series of human IL-4R ECD was injected as analyte. After each analyte injection cycle, the sensor chip was regenerated (MgCl₂), and new Morrison antibody was subsequently re-captured. […] The apparent dissociation (kd) and association (kₐ) rate constants and the apparent dissociation equilibrium constant (KD) were calculated with the Biacore analysis software (Biacore Evaluation software Version 3.2, Cytiva) using one-to-one Langmuir binding model and quality of the fits was monitored based on Chi2 and U-value, which are measures for the quality of the curve fitting. The binding level was calculated as the maximum stability binding achieved normalized to the theoretical Rmax. Cross-reactivity to cynomolgus monkey IL-4R was measured using the same setup as for the analysis of human IL-4R kinetics, with the difference that recombinant cynomolgus monkey IL-4R (ECD with His-tag, Acro Biosystems) protein was used as analyte instead of human IL-4R.

The target in assay [8] is T6, recombinant human IL-4R protein (ECD with His Tag, Sino Biological) (human, UniProt P24394 26-232).
T6 construct: extracellular domain; bought; also called human IL-4R ECD; not shown: His Tag
The description is as above. Here is the method:
as §1

Assay [9] has as its target T7, cynomolgus IL-4R on transfected HEK293T cells (cynomolgus monkey, UniProt A0A2K5V580 33-832).
T7 construct: whole, on cells; also called cynomolgus IL-4R-expressing HEK293T cells; not shown: V5 Tag fused to the N-terminus of the expression construct
In words: flow cytometry, transfected HEK293T cells. From the text: (§2) To test binding of the Morrison-H and Morrison-L antibodies PRO2198, PRO2199, PRO2206 and PRO2207 to human or cynomolgus IL-4R-expressing HEK293T cells, HEK293T cells were transfected with human and cynomolgus IL-4R plasmids and mock plasmid using Lipofectamine3000. Binding of an antibody targeting V5 Tag, which is fused to the N-terminus of human and cynomolgus IL-4R expression constructs, would confirm successful expression of both targets and was thus used as a positive control for plasma membranous binding. The Morrison-H molecule PRO2077 was used as negative control for cynomolgus IL-4R binding since this molecule had not shown any cross-reactivity to cynomolgus IL-4R (see section 5.3.).
(§3) 50,000 transfected HEK293T cells per well were seeded in a 96-well plate. 5-fold serial dilutions of the Morrison-H and Morrison-L antibodies PRO2198, PRO2199, PRO2206 and PRO2207 and of the control molecule PRO2077, which is not cross-reactive to cynomolgus IL-4R, were added at concentrations ranging from 5,000 to 0.32 ng/ml to the plates and incubated for 60 min at 4° C. on a shaker. Supernatants were removed and detection reagent was added for flow cytometry analysis. The geometric mean of the APC fluorescence intensity of single cells was calculated.

Assay [10] addresses T8, human IL-4R on transfected HEK293T cells (human, UniProt P24394 26-825).
T8 construct: whole, on cells; also called human IL-4R-expressing HEK293T cells; not shown: V5 Tag fused to the N-terminus of the expression construct
In words: flow cytometry, transfected HEK293T cells.
Excerpt: as §2, §3

The target of assay [11] is T1, human IL-4R on cells (HEK-Blue …). Description: cell-based or functional assay. The source holds these as a separate data set.
Assay [12] shares this target. Description: cell-based or functional assay. The source holds these as a separate data set.
Assay [13] has as its target T4, recombinant human IL-31 protein …. In words: cell-based or functional assay. This is another data set of the same source.
Assay [14] deals with T3, Human IL-4R-Fc. In words: SPR, hIL-4R-Fc captured, scFv analyte. As for the experimental part:
(§4) Affinity of the optimized anti-IL-4R scFvs PRO1898 and PRO1899 to human IL-4R was determined by SPR analysis on a T200 device (Biacore, GE Healthcare), as described above in section 1.2.2. The scFvs were measured using a dose response multi-cycle kinetic assay with seven analyte concentrations ranging from 0.12 to 90 nM diluted in running buffer. Obtained sensorgrams were fitted using a 1:1 binding model.
The source holds these as a separate data set.

Assay [15] concerns the target T9, human IL-4R (form not stated) (human, UniProt P24394 26-232, limits assumed).
T9 construct: whole entry named; also called hIL-4R
Description: competition ELISA, hIL-4/IL-4R. Here is the method:
Potency of the optimized anti-IL-4R scFvs PRO1898 and PRO1899 scFvs was determined using a competitive ELISA. The potency of each scFv to inhibit the interaction between human IL-4 and human IL-4R was assessed by ELISA as described in section 1.2.2. Similarly, to the stat-6 reporter gene assay, individual IC₅₀ values on each plate were calibrated against the IC₅₀ of the reference molecule dupilumab.

The next assay deals with T10, cynomolgus IL-4R-Fc (cynomolgus monkey (Macaca fascicularis), UniProt A0A2K5V580 33-239).
T10 construct: also called cynomolgus IL-4R capture setup; not shown: Fc part
Description: SPR, capture setup, cynomolgus IL-4R-Fc captured. Here is the method:
as §4
Affinity of the optimized anti-IL-4R scFvs PRO1898 and PRO1899 to cynomolgus IL-4R was measured using the same setup as for the analysis of human IL-4R affinities, with the difference that cynomolgus IL-4R-Fc was captured instead of human IL-4R-Fc, as described above in section 1.2.2.

Residue numbers refer to the chain shown, from its start. In names and notes the source's numbering stands. Where two headings read alike, the source gives them in different places.

T5 sequence (A0A2K5V556 entry or part of it limits assumed): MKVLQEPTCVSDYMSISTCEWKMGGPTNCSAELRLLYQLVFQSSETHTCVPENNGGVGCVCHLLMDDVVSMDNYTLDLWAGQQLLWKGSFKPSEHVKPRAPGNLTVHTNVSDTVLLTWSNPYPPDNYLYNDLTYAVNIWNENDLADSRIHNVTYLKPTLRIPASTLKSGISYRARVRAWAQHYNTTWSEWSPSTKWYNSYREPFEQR
T2 sequence (Q0PIT7 entry or part of it limits assumed): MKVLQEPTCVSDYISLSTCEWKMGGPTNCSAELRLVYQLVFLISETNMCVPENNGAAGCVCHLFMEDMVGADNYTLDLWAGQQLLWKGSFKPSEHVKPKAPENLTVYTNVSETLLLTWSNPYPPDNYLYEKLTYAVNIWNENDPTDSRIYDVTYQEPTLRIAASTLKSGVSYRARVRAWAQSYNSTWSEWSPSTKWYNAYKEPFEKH
T7 sequence (A0A2K5V580 entry or part of it): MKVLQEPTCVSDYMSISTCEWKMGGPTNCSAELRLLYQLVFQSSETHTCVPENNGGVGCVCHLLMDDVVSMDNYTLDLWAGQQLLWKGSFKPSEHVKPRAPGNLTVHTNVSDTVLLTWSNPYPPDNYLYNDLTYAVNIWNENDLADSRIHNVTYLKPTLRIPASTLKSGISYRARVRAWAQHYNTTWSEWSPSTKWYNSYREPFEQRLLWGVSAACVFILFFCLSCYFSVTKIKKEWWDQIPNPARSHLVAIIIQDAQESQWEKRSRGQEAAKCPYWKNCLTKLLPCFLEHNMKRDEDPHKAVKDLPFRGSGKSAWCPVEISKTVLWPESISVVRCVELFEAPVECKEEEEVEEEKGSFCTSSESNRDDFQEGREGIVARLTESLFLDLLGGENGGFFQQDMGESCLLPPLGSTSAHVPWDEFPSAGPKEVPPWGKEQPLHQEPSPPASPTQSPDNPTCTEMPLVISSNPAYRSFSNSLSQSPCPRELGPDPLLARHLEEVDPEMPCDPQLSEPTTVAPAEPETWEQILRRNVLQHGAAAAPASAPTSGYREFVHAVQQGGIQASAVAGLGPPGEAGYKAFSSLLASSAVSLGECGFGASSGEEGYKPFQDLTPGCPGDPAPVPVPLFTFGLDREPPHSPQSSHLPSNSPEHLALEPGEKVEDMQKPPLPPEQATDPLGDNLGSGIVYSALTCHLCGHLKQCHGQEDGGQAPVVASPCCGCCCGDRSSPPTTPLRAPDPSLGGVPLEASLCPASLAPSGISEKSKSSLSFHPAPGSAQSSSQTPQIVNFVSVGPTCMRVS

B1: PRO1535 (scFv)
chain: DIQMTQSPSSLSASVGDRVTITCQASEDIESYLAWYQQKPGKPPKLLIYRASTLAYGVPSRFSGSGSGTDFTLTISSLQPEDFATYYCLGSSYSTGSNIFGTGTKVTVLGGGGGSGGGGSGGGGSGGGGSESQLVESGGGLVQPGGSLRLSCAASGFSSSSAHYMCWVRQAPGKGLEWIACIYAGSRGSTYYASWAKGRFTISKDNSKNTVYLQMNSLRAEDTAVYFCARAAFVNRGVSWIWPYYFSLWGQGTLVTVSS
B1: in assay [1], the “IC50, neutralization of hIL-4-induced signaling, stat-6 reporter gene assay” value was 1.15 ng/mL and the “IC50, neutralization of hIL-13-induced signaling, stat-6 reporter gene assay” value was found to be 2.3 ng/mL. In the assay with marmoset IL-4R ECD, the Kd turned out to be 0.787 nM, the koff stood at 0.00254 s⁻¹ and the kon turned out to be 3.23e+06 M⁻¹ s⁻¹. Further, in the assay with Human IL-4R-Fc [2], binding was put at a Kd of 0.0199 nM, the koff is 5.42e-05 s⁻¹ and the kon amounted to 2.72e+06 M⁻¹ s⁻¹.

B2: PRO2199 (bispecific antibody, human IgG4 S228P, kappa)
light: DIQMTQSPSSLSASVGDRVTITCQASEDIESYLAWYQQKPGKAPKLLIYRASTLAYGVPSRFSGSGSGTDFTLTISSLQPEDFATYYCLGSSYSTGSNIFGQGTKVEIKRTVAAPSVFIFPPSDEQLKSGTASVVCLLNNFYPREAKVQWKVDNALQSGNSQESVTEQDSKDSTYSLSSTLTLSKADYEKHKVYACEVTHQGLSSPVTKSFNRGEC
heavy: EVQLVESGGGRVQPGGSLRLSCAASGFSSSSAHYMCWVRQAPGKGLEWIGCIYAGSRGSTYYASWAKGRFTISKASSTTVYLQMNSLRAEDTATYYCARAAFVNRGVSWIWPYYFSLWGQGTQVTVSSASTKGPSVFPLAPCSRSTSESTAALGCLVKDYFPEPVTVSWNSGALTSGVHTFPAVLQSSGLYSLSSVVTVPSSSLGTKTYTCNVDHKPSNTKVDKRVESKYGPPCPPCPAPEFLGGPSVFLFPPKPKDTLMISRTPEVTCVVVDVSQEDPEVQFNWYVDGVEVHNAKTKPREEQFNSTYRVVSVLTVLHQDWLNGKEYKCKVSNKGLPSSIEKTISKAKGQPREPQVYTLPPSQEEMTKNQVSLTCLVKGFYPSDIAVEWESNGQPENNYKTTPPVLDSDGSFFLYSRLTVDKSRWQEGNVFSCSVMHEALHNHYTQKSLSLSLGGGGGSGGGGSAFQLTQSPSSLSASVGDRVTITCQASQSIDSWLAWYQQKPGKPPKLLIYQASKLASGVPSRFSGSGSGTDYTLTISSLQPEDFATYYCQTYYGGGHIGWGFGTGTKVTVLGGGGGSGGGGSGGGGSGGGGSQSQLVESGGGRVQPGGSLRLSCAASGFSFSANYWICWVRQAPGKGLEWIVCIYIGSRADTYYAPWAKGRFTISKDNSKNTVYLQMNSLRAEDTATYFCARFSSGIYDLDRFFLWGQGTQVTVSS
notes: IgG4 (S228P) Morrison-H; also called Morrison-H; MorrH
For B2, the “Mean IC50, human IL-4-induced signaling, stat-6 reporter gene assay” value in assay [3] came to 11.5 pM. For the same molecule, the “IC50 (read off the curve), human IL-31-induced IL-31RA/OSMR dimerization, with an excess of IL-4R extracellular domain in the medium” value in [4] is around 100 pM. In addition, in assay [5], the “IC50 (single analysis), human IL-13-induced signaling, stat-6 reporter gene assay” value stood at 11.3 pM. In assay [6], the “IC50, cynomolgus IL-31-induced IL-31RA/OSMR dimerization (RLU) [table under the graph]” value turned out to be 1210 pM. For the same molecule, in [7], the Kd came to 0.0351 nM, the off-rate (koff) was 3.44e-05 s⁻¹ and the on-rate constant (kon) came to 980000 M⁻¹ s⁻¹. In assay [8], the dissociation constant (Kd) came out at 0.197 nM, the dissociation rate constant (koff) stood at 5.76e-05 s⁻¹ and the kon was 293000 M⁻¹ s⁻¹. In addition, the EC50 in assay [9] came to 1.78 nM. This molecule also returned an EC50 in assay [10] of 0.85 nM. Besides, the “IC50, IL-4-induced TARC secretion in human whole blood” value in assay [11] was below 500 pM. Further, in assay [12], the “IC50, IL-4-induced CD23 expression, memory B cells” value amounted to 2530 pM; the “IC50, IL-4-induced CD23 expression, monocytes (blood donor 1)” value stood at 69.7 pM; the “IC50, IL-4-induced CD23 expression, naive B cells” value came out at 1100 pM. Further, in assay [13], the “Mean IC50, human IL-31-induced signaling, IL-31RA/OSMR dimerization assay” value worked out at 142 pM.

B3: PRO1898 (scFv, V domains shown)
VH: EVQLVESGGGLVQPGGSLRLSCAASGFSSSSAHYMCWVRQAPGKGLEWIGCIYAGSRGSTYYASWAKGRFTISRDNSKNTVYLQMNSLRAEDTAVYYCARAAFVNRGVSWIWPYYFSLWGQGTLVTVSS
VL: DIQMTQSPSSLSARVGDRVTITCQASEDIESYLAWYQQKPGKAPKLLIYRASTLAYGVPSRFSGSGSGRDFTLTISSLQPEDFATYYCLGSSYSTGSNIFGTGTKVTVLG
notes: scFv; VL entry ends with LCDR3 (no FR4); also called 44-34-C10-sc08
In the assay with Human IL-4R-Fc [14], B3 registered a Kd of 7.91 pM, an off-rate (koff) of 1.7e-05 s⁻¹ and a kon of 2.15e+06 M⁻¹ s⁻¹. The same molecule had a half-maximal inhibitory concentration (IC50) in [15] of 3.41 ng/mL. In the assay with cynomolgus IL-4R-Fc, this molecule showed a Kd of 0.0908 nM, an off-rate constant (koff) of 0.000109 s⁻¹ and an on-rate constant (kon) of 1.2e+06 M⁻¹ s⁻¹.

B4: PRO1899 (scFv, V domains shown)
VH: EVQLVESGGGRVQPGGSLRLSCAASGFSSSSAHYMCWVRQAPGKGLEWIGCIYAGSRGSTYYASWAKGRFTISKASSTTVYLQMNSLRAEDTATYYCARAAFVNRGVSWIWPYYFSLWGQGTQVTVSS
VL: B3 VL with R14S, R69T
notes: scFv; VL entry ends with LCDR3 (no FR4); also called 44-34-C10-sc09
In the assay with Human IL-4R-Fc [14], B4 came in with a dissociation constant (Kd) of 6.92 pM, a koff of 2.04e-05 s⁻¹ and an on-rate constant (kon) of 2.95e+06 M⁻¹ s⁻¹. The molecule further showed a half-inhibitory concentration (IC50) in assay [15] of 2.98 ng/mL. For the same molecule, in the assay with cynomolgus IL-4R-Fc, the affinity, expressed as Kd, was 0.012 nM; the off-rate (koff) came to 0.00014 s⁻¹; the on-rate constant (kon) came out at 1.1e+07 M⁻¹ s⁻¹.
